From the DeepSol protein solubility set come the findings set out here.

The data set in a line: soluble on expression in E. coli; label from the status in PepcDB or PDB records.
Regarding “MSLSVKRVLRNTIRKEKEENRVTEPLTETPELSAKYAWFFDLDGTLAEIKPHPDQVVVPDTILQGLQLLATASDGALALISGRSMVELDALAKPYRFPLAGVHGAERRDINGKTHIVHLPDAIARDISVQLHTVIAQYPGAELEAKGMAFALHYRQAPQHEDALMTLAQRITQIWPQMALQQGKCVVEIKPKGTSKGEAIAAFMQEAPFIGRTPVFLGDDLTDESGFAVVNRLGGMSVKIGTGATQASWRLAGVPDVWSWLEMITTALQQKRENNRSDDYESFSRSIEGHHHHHH”, the “soluble on expression in E. coli” value is “soluble”. The result for “MGSDKIHHHHHHMNLLDHLRRMAGNNLWSNDRLYRAVLALKPGEFEAERTSFFPSIKATLNHVLAVDYLYLDFLEEGGVGAAAHDDFVPFDEPQPLFAAQMAADRRLIAFCDGLSEADLDRRVITDRRADGMIPERIGDILAHVFLHDIHHRGQVHAMLSGTSVVPPQLDEFLLDYDAKLRKAEVERLGL” reads “not soluble”; that for “MDICERSDEVVRYDSAQIRNGELELSSTVDDALFTDGLVATSGMLNADCRLVFGLVMFGHPLDEPMLCFTANGFELTVSIPNEDGETSSTWVIMARER”, “not soluble”; that for “MGSDKIHHHHHHMKNLLDLTGKLNIYSPKFNRYQTSLMKIDMHRTKLEQKQPHFDAQKRRKKECKNSNTPFVRPKLELPHGHNKLLLHSCCAPCSGEVMEAIHASGIDFTIYFYNPNIHPLKEYLIRKEENIRFAEKWGIPFIDADYDRQNWFDRAKGMEDEPERGIRCTMCFDMRFEKAAQYAHENGFPVFTSCLGISRWKDMNQINGCGHRAAEKYDDVVYWDYNWRKGGGSQRMIEISKRERFYQQEYCGCVYSLRDTNKWREANGRQKIEIGKLYYSADK”, “not soluble”. In the case of “MGSDKIHHHHHHMKTKMPEMLSFISEEAVSRKMTSEEIAAHFGYDKHHFSRKFKEINGFSVVEFLSSLKVEKAIIELNEEKRILDLQEHSGFESSGSFTNTFKKYTGSSPRKYKTEMNDIFYDMKRFENDNKDKSIAHFQEKNDSFCTVTIDVPDEFEKGIIFIGLFRTLIPNHMPISGLATKNLIGNQLKNIPSGDYYLLACAISQSNNILSYFNLSNSLRGKEDEKLSFPKCSGKHYAIKLREPIPEDPPILANVGKILISCLKNTI”, the “soluble on expression in E. coli” value is “not soluble”. For “MGSDKIHHHHHHMEHNRVLRLEHGINFRELGGYENTAGQTIKWQKLLRCGGMSLLTNRDLTYLDNYGLRYDIDLRQANEAEMSPDRYPKNTKYINTSVYPFTDNRRFDRRLKRLIKRMVVDDSFNAQTYAQMITDSHAVKVWQNLFATLLANDQPDQSVLFHCAAGKDRTGVAGALIMTALDVPRETIMQDYLLTNAVFMAADSMDTATIITKANAGDLASQFNVAMAVEADNMKMVFRVFDDLYGNGIGYLREVLGLSVADINNLRQLYLND” the value was “not soluble”. For “MGSDKIHHHHHHMKTCWQILEIESTTQIDIIRQAYLARLPLCHPETDPQGFKALRQAYEEALRLAVNPVEEADDEEKDATAEHEILRAFRTLLDSESDRFQPSAWQKFIQQLNTWNMEDVDQLRWPLCAIAIEARYLSLNCASLLAERLNWHSFNDSEGMDEEEREAFLEAIQAGDCFDFLSLLEYPVALQNQTVEYYFALERCCRYHPDYVTAFLAMEGPWFIPDDAKLHRKLLRWYSSVQTGMVELIPVAKQWQAEEPESEDARYYQCAQRLYCGEGESLLADLGAYWESYPSTQADNLLLQWSKRHCPDYFALLVMVIEARSMVDAQGQPLKYVPGESARTRLLWAEILHSGKLSPLGQSFIESLFFKRKAWAWWKSRVGSETEEDSPLLDLYRVAEQVVLEAFPKQEMLARLNTRLEGGDAHPLEAIITRMLLTKVKLEPEDEDVDEPTPENHEEKNDEGEKPQSITSIIKISLTVLVIGYALGKIAMLFS” the value was “not soluble”; for “MKSLGNRQRFLRRAREELKRSIRDKVRAGGIAELDREHVVPIPRKGTGEPTFGDDKESGRRQHILPGNRTFSSGDLIPKPGGGGGYGSAAGTTESEDDFRFVLSREEVLDLFFEDLELPDLVKLNLKQVLSFKPRRAGFAASGAPTNINVGRTMRNSHGRRIALRRPKQAELDAIARQIAELEAKPASALVRERIAALREALDRLERRRKRIAYVDPVDIRFNRFDPQPLPNANAVMFCLMDVSGSMGEREKDLAKRFFVLLHLFLTRRYERTDIVFIRHTHLAKEVDEHTFFYHTESGGTVVSTALEEMHRIIEQRYPVAEWNIYAAQASDGDNFAGDSERCIELLDRKLMRLCQYFAYVEIIDERESHIFGATENGTSLWRAYNAVDGKWPNFQMRRIAAPADIYPVFRQLFARQPDLRKSALEHHHHHH”, “soluble”.
